Among the data in article PMC11311238 are fraction of the decay of excited CK bilins that is quenched (112 ps component) in CK-NTD, transient absorption with excitation values, retold here.

The target in this experiment is phycobilisome core (CK) of allophycocyanin cylinders from a Synechocystis PCC 6803 mutant lacking the rods (Synechocystis sp. PCC 6803 (endogenous in the rod-less mutant)) (UniProt Q01951).

B1: N-terminal domain (NTD) of the orange carotenoid protein (OCP) binding canthaxanthin (holo-NTD) (domain or fragment)
chain: VPATIARFSQLNAEDQLALIWFAYLEMGKTLTIAAPGAASMQLAENALKEIQAMGPLQQTQAMCDLANRADTPLCRTYASWSPNIKLGFWYRLGELMEQGFVAPIPAGYQLSANANAVLATIQGLESGQQITVLRNAVVDMGFTA
On to B1, for which the fraction of the decay of excited CK bilins that is quenched (112 ps component) in CK-NTD, transient absorption with excitation at 694 nm turned out to be 76%.
